Test results from patent US20140087995A1 (published 2014).
Blank lines part the entries; values can stand above or below the binder they belong to. Numbered stars: 1 amine (or outer) side, 2 acyl side, 3 side chain; on linkers, the order of the positions; unused ones are H or OH. Bridge positions count the residues as written; N and C are the ends. Side chains are listed from the residue outwards. Ends that are not written are not given here. * marks the point of attachment. C20 diacid = O=C(O)CCCCCCCCCCCCCCCCCCC(=O)*; γGlu = O=C(O)[C@H](CCC(=O)[*:2])N[*:1]; AEEA = NCCOCCOCC(=O)O

Experiments:
[1] = molecular target: T1, human calcitonin receptor (human, UniProt P30988 25-474); test: cell-based or functional assay
T1 sequence (looked up): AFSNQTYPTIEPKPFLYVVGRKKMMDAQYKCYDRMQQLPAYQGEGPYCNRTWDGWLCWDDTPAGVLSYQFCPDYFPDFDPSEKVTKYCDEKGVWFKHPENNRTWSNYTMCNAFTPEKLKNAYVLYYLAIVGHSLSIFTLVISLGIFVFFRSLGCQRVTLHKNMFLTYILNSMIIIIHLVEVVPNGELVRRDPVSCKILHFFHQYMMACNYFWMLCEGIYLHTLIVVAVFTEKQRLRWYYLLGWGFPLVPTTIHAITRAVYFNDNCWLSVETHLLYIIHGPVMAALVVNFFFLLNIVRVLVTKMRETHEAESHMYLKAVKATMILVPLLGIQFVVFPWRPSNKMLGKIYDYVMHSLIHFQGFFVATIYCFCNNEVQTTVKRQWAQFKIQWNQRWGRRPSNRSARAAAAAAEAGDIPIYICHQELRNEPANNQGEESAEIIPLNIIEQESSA

[2] = molecular target: T2, human amylin 3(a) receptor (human calcitonin receptor co-expressed with RAMP-3) (human, UniProt P30988 25-474; O60896 24-148, limits assumed); test: cell-based or functional assay
T2 sequence (looked up) 1: T1 sequence (looked up)
T2 sequence (looked up) 2: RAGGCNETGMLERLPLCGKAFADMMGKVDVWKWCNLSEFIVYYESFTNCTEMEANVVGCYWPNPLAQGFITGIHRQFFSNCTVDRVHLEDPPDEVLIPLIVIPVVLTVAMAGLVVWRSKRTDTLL

B1: N^ε1-[2-[2-[2-[[2-[2-[2-[[(4S)-4-carboxy-4-(19-carboxynonadecanoylamino)butanoyl]amino]ethoxy]ethoxy]acetyl]amino]ethoxy]ethoxy]acetyl]-[Arg17,Pro21,Pro27,Pro34 … (peptide)
peptide: K([AEEA-AEEA-γGlu-C20 diacid])CNTATCATQRLANFLRHSSPNFGAIPSSTNVGPNTY-NH2
modifications: disulfide 2-7; N-terminus assumed
SMILES: CC[C@H](C)[C@H](NC(=O)[C@H](C)NC(=O)CNC(=O)[C@H](Cc1ccccc1)NC(=O)[C@H](CC(N)=O)NC(=O)[C@@H]1CCCN1C(=O)[C@H](CO)NC(=O)[C@H](CO)NC(=O)[C@H](Cc1c[nH]cn1)NC(=O)[C@H](CCCNC(=N)N)NC(=O)[C@H](CC(C)C)NC(=O)[C@H](Cc1ccccc1)NC(=O)[C@H](CC(N)=O)NC(=O)[C@H](C)NC(=O)[C@H](CC(C)C)NC(=O)[C@H](CCCNC(=N)N)NC(=O)[C@H](CCC(N)=O)NC(=O)[C@@H](NC(=O)[C@H](C)NC(=O)[C@@H]1CSSC[C@H](NC(=O)[C@@H](N)CCCCNC(=O)COCCOCCNC(=O)COCCOCCNC(=O)CC[C@H](NC(=O)CCCCCCCCCCCCCCCCCCC(=O)O)C(=O)O)C(=O)N[C@@H](CC(N)=O)C(=O)N[C@@H]([C@@H](C)O)C(=O)N[C@@H](C)C(=O)N[C@@H]([C@@H](C)O)C(=O)N1)[C@@H](C)O)C(=O)N1CCC[C@H]1C(=O)N[C@@H](CO)C(=O)N[C@@H](CO)C(=O)N[C@H](C(=O)N[C@@H](CC(N)=O)C(=O)N[C@H](C(=O)NCC(=O)N1CCC[C@H]1C(=O)N[C@@H](CC(N)=O)C(=O)N[C@H](C(=O)N[C@@H](Cc1ccc(O)cc1)C(N)=O)[C@@H](C)O)C(C)C)[C@@H](C)O
notes: also called compound 98
Ratio hCT/hAmylin funct. [1]: 19.5
hCTR funct. EC50 [1]: 1.63 nM
hAmylin-R funct. EC50 [2]: 0.084 nM

B2: N^ε1-[2-[2-[2-[[(4S)-4-carboxy-4-(19-carboxynonadecanoylamino)butanoyl]amino]ethoxy]ethoxy]acetyl]-[Arg14,Arg17,Pro21,Pro27]-h-amylin (peptide)
peptide: K([AEEA-γGlu-C20 diacid])CNTATCATQRLARFLRHSSPNFGAIPSSTNVGSNTY-NH2
modifications: disulfide 2-7; N-terminus assumed
SMILES: CC[C@H](C)[C@H](NC(=O)[C@H](C)NC(=O)CNC(=O)[C@H](Cc1ccccc1)NC(=O)[C@H](CC(N)=O)NC(=O)[C@@H]1CCCN1C(=O)[C@H](CO)NC(=O)[C@H](CO)NC(=O)[C@H](Cc1c[nH]cn1)NC(=O)[C@H](CCCNC(=N)N)NC(=O)[C@H](CC(C)C)NC(=O)[C@H](Cc1ccccc1)NC(=O)[C@H](CCCNC(=N)N)NC(=O)[C@H](C)NC(=O)[C@H](CC(C)C)NC(=O)[C@H](CCCNC(=N)N)NC(=O)[C@H](CCC(N)=O)NC(=O)[C@@H](NC(=O)[C@H](C)NC(=O)[C@@H]1CSSC[C@H](NC(=O)[C@@H](N)CCCCNC(=O)COCCOCCNC(=O)CC[C@H](NC(=O)CCCCCCCCCCCCCCCCCCC(=O)O)C(=O)O)C(=O)N[C@@H](CC(N)=O)C(=O)N[C@@H]([C@@H](C)O)C(=O)N[C@@H](C)C(=O)N[C@@H]([C@@H](C)O)C(=O)N1)[C@@H](C)O)C(=O)N1CCC[C@H]1C(=O)N[C@@H](CO)C(=O)N[C@@H](CO)C(=O)N[C@H](C(=O)N[C@@H](CC(N)=O)C(=O)N[C@H](C(=O)NCC(=O)N[C@@H](CO)C(=O)N[C@@H](CC(N)=O)C(=O)N[C@H](C(=O)N[C@@H](Cc1ccc(O)cc1)C(N)=O)[C@@H](C)O)C(C)C)[C@@H](C)O
notes: also called compound 82
Ratio hCT/hAmylin funct. [1]: 59.2
hCTR funct. EC50 [1]: 12.7 nM
hAmylin-R funct. EC50 [2]: 0.215 nM

Now from value to binder:

Ratio hCT/hAmylin funct. [1]: 32.5
hCTR funct. EC50 [1]: 5.49 nM
hAmylin-R funct. EC50 [2]: 0.169 nM
B3: N^ε1-[2-[2-[2-[[(4S)-4-carboxy-4-(19-carboxynonadecanoylamino)butanoyl]amino]ethoxy]ethoxy]acetyl]-[His14,Arg17,Pro21,Pro27,Arg34]-h-amylin (peptide)
peptide: K([AEEA-γGlu-C20 diacid])CNTATCATQRLAHFLRHSSPNFGAIPSSTNVGRNTY-NH2
modifications: disulfide 2-7; N-terminus assumed
SMILES: CC[C@H](C)[C@H](NC(=O)[C@H](C)NC(=O)CNC(=O)[C@H](Cc1ccccc1)NC(=O)[C@H](CC(N)=O)NC(=O)[C@@H]1CCCN1C(=O)[C@H](CO)NC(=O)[C@H](CO)NC(=O)[C@H](Cc1c[nH]cn1)NC(=O)[C@H](CCCNC(=N)N)NC(=O)[C@H](CC(C)C)NC(=O)[C@H](Cc1ccccc1)NC(=O)[C@H](Cc1c[nH]cn1)NC(=O)[C@H](C)NC(=O)[C@H](CC(C)C)NC(=O)[C@H](CCCNC(=N)N)NC(=O)[C@H](CCC(N)=O)NC(=O)[C@@H](NC(=O)[C@H](C)NC(=O)[C@@H]1CSSC[C@H](NC(=O)[C@@H](N)CCCCNC(=O)COCCOCCNC(=O)CC[C@H](NC(=O)CCCCCCCCCCCCCCCCCCC(=O)O)C(=O)O)C(=O)N[C@@H](CC(N)=O)C(=O)N[C@@H]([C@@H](C)O)C(=O)N[C@@H](C)C(=O)N[C@@H]([C@@H](C)O)C(=O)N1)[C@@H](C)O)C(=O)N1CCC[C@H]1C(=O)N[C@@H](CO)C(=O)N[C@@H](CO)C(=O)N[C@H](C(=O)N[C@@H](CC(N)=O)C(=O)N[C@H](C(=O)NCC(=O)N[C@@H](CCCNC(=N)N)C(=O)N[C@@H](CC(N)=O)C(=O)N[C@H](C(=O)N[C@@H](Cc1ccc(O)cc1)C(N)=O)[C@@H](C)O)C(C)C)[C@@H](C)O
notes: also called compound 84

Ratio hCT/hAmylin funct. [1]: 15.4
hCTR funct. EC50 [1]: 2.14 nM
hAmylin-R funct. EC50 [2]: 0.139 nM
B4: N^ε1-[2-[2-[2-[[(4S)-4-carboxy-4-(19-carboxynonadecanoylamino)butanoyl]amino]ethoxy]ethoxy]acetyl]-[His14,Arg17,Pro21,Pro27,His34]-h-amylin (peptide)
peptide: K([AEEA-γGlu-C20 diacid])CNTATCATQRLAHFLRHSSPNFGAIPSSTNVGHNTY-NH2
modifications: disulfide 2-7; N-terminus assumed
SMILES: CC[C@H](C)[C@H](NC(=O)[C@H](C)NC(=O)CNC(=O)[C@H](Cc1ccccc1)NC(=O)[C@H](CC(N)=O)NC(=O)[C@@H]1CCCN1C(=O)[C@H](CO)NC(=O)[C@H](CO)NC(=O)[C@H](Cc1c[nH]cn1)NC(=O)[C@H](CCCNC(=N)N)NC(=O)[C@H](CC(C)C)NC(=O)[C@H](Cc1ccccc1)NC(=O)[C@H](Cc1c[nH]cn1)NC(=O)[C@H](C)NC(=O)[C@H](CC(C)C)NC(=O)[C@H](CCCNC(=N)N)NC(=O)[C@H](CCC(N)=O)NC(=O)[C@@H](NC(=O)[C@H](C)NC(=O)[C@@H]1CSSC[C@H](NC(=O)[C@@H](N)CCCCNC(=O)COCCOCCNC(=O)CC[C@H](NC(=O)CCCCCCCCCCCCCCCCCCC(=O)O)C(=O)O)C(=O)N[C@@H](CC(N)=O)C(=O)N[C@@H]([C@@H](C)O)C(=O)N[C@@H](C)C(=O)N[C@@H]([C@@H](C)O)C(=O)N1)[C@@H](C)O)C(=O)N1CCC[C@H]1C(=O)N[C@@H](CO)C(=O)N[C@@H](CO)C(=O)N[C@H](C(=O)N[C@@H](CC(N)=O)C(=O)N[C@H](C(=O)NCC(=O)N[C@@H](Cc1c[nH]cn1)C(=O)N[C@@H](CC(N)=O)C(=O)N[C@H](C(=O)N[C@@H](Cc1ccc(O)cc1)C(N)=O)[C@@H](C)O)C(C)C)[C@@H](C)O
notes: also called compound 80
